Assay [1] addresses Anti-idiotype 3-2G12 Fab′. As to the kind of experiment: sedimentation equilibrium of the isolated complex, fitted as a single species.
The next assay deals with NC10 scFv-10 dimer. The assay is described as follows: BIAcore SPR; scFv-10 dimer immobilised (200 RU), Fab′ as analyte. (SPR reads the build-up and loss of mass on a sensor chip optically.)
Assay [2] deals with NC10 scFv-15 monomer. As to the kind of experiment: BIAcore SPR; scFv-15 monomer immobilised (2000 RU), Fab′ as analyte.
In the next assay the target is NC10 scFv-5 dimer. The assay is described as follows: BIAcore SPR; scFv-5 dimer immobilised (200 RU), Fab′ as analyte.
For assay [3], the target named is NC10 scFv-0 trimer (VH-VL). As to the kind of experiment: BIAcore SPR; scFv-0 trimer immobilised (450 RU), Fab′ as analyte.
Assay [4] concerns the target NC10 scFv-15 monomer. The assay is described as follows: BIAcore SPR; scFv-15 monomer immobilised (~2000 RU), from the RU increase.
Assay [5] addresses Anti-idiotype 3-2G12 Fab′. As to the kind of experiment: sedimentation equilibrium of the isolated complex.
The target of assay [6] is Anti-idiotype 3-2G12 Fab′. As to the kind of experiment: BIAcore SPR; 3-2G12 Fab′ immobilised (1000 RU), scFv as analyte.
For assay [7], the target named is NC41 Fab. The assay is described as follows: sedimentation equilibrium of the isolated complex.
The target in assay [8] is NC41 Fab. As to the kind of experiment: BIAcore SPR; NC41 Fab immobilised, scFv as analyte.
Assay [9] has as its target NC41 Fab. The assay is described as follows: gel filtration FPLC on Superose 12.
For assay [10], the target named is NC41 Fab. As to the kind of experiment: BIAcore SPR; NC41 Fab immobilised, scFv as analyte (apparent, multivalent).

Some results are limits rather than exact numbers.

Take NC10 scFv-0 trimer (VH-VL): the molecular mass of complex (measured, apparent average) in assay [1] was 212000 Da.
By koff is commonly meant the rate constant with which the complex falls apart. In general, kon refers to a measure of how fast the partners come together. Read a high kon as faster complex formation. Turning to Anti-idiotype 3-2G12 Fab′, the Ka with NC10 scFv-10 dimer was 1.3e+08 M⁻¹; with NC10 scFv-15 monomer [2] it was 2.5e+08 M⁻¹; with NC10 scFv-5 dimer, 1.06e+08 M⁻¹; in [3] it was 1.13e+08 M⁻¹. Besides, the koff came to 0.0029 s⁻¹ with NC10 scFv-10 dimer, 0.0021 s⁻¹ with NC10 scFv-15 monomer [2], 0.0033 s⁻¹ in the assay with NC10 scFv-5 dimer and 0.0023 s⁻¹ in [3]. The kon with NC10 scFv-10 dimer was determined as 370000 M⁻¹ s⁻¹; with NC10 scFv-15 monomer [2] it was 500000 M⁻¹ s⁻¹; in the assay with NC10 scFv-5 dimer, 350000 M⁻¹ s⁻¹; in [3] it was 260000 M⁻¹ s⁻¹. The substance also gave a percent of immobilised protein active with NC10 scFv-15 monomer [4] of less than 10%.
The substance NC10 scFv-15 monomer yielded a molecular mass of complex (measured) in assay [5] of 77900 Da. Moreover, in assay [6], the Ka stood at 4.2e+08 M⁻¹, the koff was 0.00174 s⁻¹ and the kon came to 740000 M⁻¹ s⁻¹.
With NC10 scFv-5 dimer, the molecular mass of complex (measured) in assay [5] turned out to be 156000 Da.
Substance 11-1G10 scFv-15 monomer gave a molecular mass of complex (experimental) with NC41 Fab [7] of 78600 Da. This substance also came in with an off-rate constant (koff) with NC41 Fab [8] of 0.00032 s⁻¹. Further, the apparent molecular mass of complex with NC41 Fab [9] came to 79 kDa.
For 11-1G10 scFv-0 trimer, in the assay with NC41 Fab [7], the molecular mass of complex (experimental) was 262000 Da. The apparent molecular mass of complex in the assay with NC41 Fab [9] came to 245 kDa. The koff with NC41 Fab [10] came to 8.2e-05 s⁻¹.

(Values after patent US20040071690A1.)
